Consider two substances from patent US20010023062A1.

In assay [1] the target is IL-5Rα/IFNaR1 + βc/IFNaR2-2 (human) (UniProt Q01344). The assay can be described thus: cell-based or functional assay.
Assay [2] has as its target IL-5Rα/IFNaR2-2 + βc/IFNaR1 (human) (UniProt Q01344). The assay can be described thus: cell-based or functional assay.

In the case of “IL-5 (produced in Sf9 cells using published methodologies) (from UniProt P05113 20-134) (ligand)”, in assay [1], the colonies in HAT + IL-5 (6-16 gpt selection, transfected 2fTGH cells, 1 ng/ml IL-5) came to 3 colonies. In assay [2], the SEAP activity (6-16SEAP reporter, transient transfection of 2fTGH cells), 1 ng/ml IL-5, against untreated cells is 5 fold; the SEAP activity (6-16SEAP reporter, transient transfection of 2fTGH cells), 2 ng/ml IL-5, against untreated cells was found to be 6 fold; the colonies in HAT + IL-5 (6-16 gpt selection, transfected 2fTGH cells, 1 ng/ml IL-5) came out at 13 colonies.
Regarding “hIL-5syn (human IL-5 expressed by the cells from pEFBOS-hIL-5syn or pMET7-hIL-5syn) (from UniProt P05113 20-134) (ligand)”, the colonies surviving in HAT medium without added IL-5 (clone C cells transfected with pEFBOS-hIL-5syn) in assay [2] amounted to 6 colonies.
